This note sets out measurements from FireProtDB (doi:10.1021/bi00105a011).

B1: Lysozyme C, P61626 (parent)
chain: MKALIVLGLVLLSVTVQGKVFERCELARTLKRLGMDGYRGISLANWMCLAKWESGYNTRATNYNAGDRSTDYGIFQINSRYWCNDGKTPGAVNACHLSCSALLQDNIADAVACAKRVVRDPQGIRAWVAWRNRCQNRDVRQYVQGCGV

In this data set the parent is B1. The note with it: Homo sapiens; pH 3; 25 °C; GdnHCl; CD; glycine-HCl 40 mM; reversible: yes (100%); structure 1LZ1; whole UniProt chain shown.

In the case of MKALIVLGLVLLSVTVQGKVFERCELARTLKRLGMDGYRGISLANWMCLAKWESGYNTRATNYNAGDRSTDYGIFQINSRYWCNDGKTPGAVNACHLSCSALLQDNIAPAVACAKRVVRDPQGIRAWVAWRNRCQNRDVRQYVQGCGV [D109P], the “ddG of mutation (higher = less stable)” value was 0.8 kcal/mol, the denaturant m value was found to be 5.42 kcal/mol/M, the “denaturant midpoint (higher = more stable)” value (shortened to “denaturant midpoint”) was 2.78 M and the unfolding free energy stood at 8.9 kcal/mol.

Take MKALIVLGLVLLSVTVQGKVFERCELARTLKRLGMDGYRGISLANWMCLAKWESGYNTRATNYNPGDRSTDYGIFQINSRYWCNDGKTPGAVNACHLSCSALLQDNIADAVACAKRVVRDPQGIRAWVAWRNRCQNRDVRQYVQGCGV [A65P]: the “ddG of mutation (higher = less stable)” value is -1.1 kcal/mol, the denaturant m value was found to be 5.5 kcal/mol/M, the “denaturant midpoint” value turned out to be 3.3 M and the unfolding free energy worked out at 10.8 kcal/mol.

As to MKALIVLGLVLLSVTVQGKVFERCELARTLKRLGMDGYRGISLANWMCLAKWESGYNTRATNYNAGDRSTDYGIFQINSRYWCNDGKTPGAVNACHLSCSALLQDNIADAVACAKRVVRDGQGIRAWVAWRNRCQNRDVRQYVQGCGV [P121G], the “ddG of mutation (higher = less stable)” value was 0 kcal/mol, the denaturant m value was 5.55 kcal/mol/M, the “denaturant midpoint” value came out at 2.95 M and the unfolding free energy was 9.7 kcal/mol.

Consider MKALIVLGLVLLSVTVQGKVFERCELARTLKRLGMDGYRGISLANWMCLAKWESGYNTRATNYNAGDRSTDYGIFQINSRYWCNDGKTGGAVNACHLSCSALLQDNIADAVACAKRVVRDGQGIRAWVAWRNRCQNRDVRQYVQGCGV [P89G P121G], for which the “ddG of mutation (higher = less stable)” value was 1.1 kcal/mol, the denaturant m value was 5.48 kcal/mol/M, the “denaturant midpoint” value stood at 2.64 M and the unfolding free energy is 8.6 kcal/mol.

As for MKALIVLGLVLLSVTVQGKVFERCELARTLKRLGMDGYRGISLANWMCLAKWESGYNTRATNYNAGDRSTDYGIFQINSRYWCNDGKTGGAVNACHLSCSALLQDNIADAVACAKRVVRDPQGIRAWVAWRNRCQNRDVRQYVQGCGV [P89G], the “ddG of mutation (higher = less stable)” value is 1.2 kcal/mol, the denaturant m value was 5.43 kcal/mol/M, the “denaturant midpoint” value is 2.63 M and the unfolding free energy worked out at 8.5 kcal/mol.

Take MKALIVLGLVLLSVTVQGKVFERCELARTLKRLGMDGYRGISLANWMCLAKWESGYNTRATNYNAGDRSTDYGIFQINSRYWCNDGKTPGAVNACHLSCSALLQDNIADAVACAKRVVRDPQGIRAWPAWRNRCQNRDVRQYVQGCGV [V128P]: the “ddG of mutation (higher = less stable)” value was -2.4 kcal/mol, the denaturant m value worked out at 6.69 kcal/mol/M, the “denaturant midpoint” value stood at 3.05 M and the unfolding free energy was 12.1 kcal/mol.
